Assay results from publication PMC10611586, “Molecular basis for ubiquitin/Fubi cross-reactivity in USP16 and USP36” (Nature Chemical Biology, 2023).

B1: USP42^70–446 (catalytic domain) (enzyme, human, UniProt Q9H9J4 70-446, looked up)
chain: DKSKPSPQKDQALGDGIAPPQKVLFPSEKICLKWQQTHRVGAGLQNLGNTCFANAALQCLTYTPPLANYMLSHEHSKTCHAEGFCMMCTMQAHITQALSNPGDVIKPMFVINEMRRIARHFRFGNQEDAHEFLQYTVDAMQKACLNGSNKLDRHTQATTLVCQIFGGYLRSRVKCLNCKGVSDTFDPYLDITLEIKAAQSVNKALEQFVKPEQLDGENSYKCSKCKKMVPASKRFTIHRSSNVLTLSLKRFANFTGGKIAKDVKYPEYLDIRPYMSQPNGEPIVYVLYAVLVHTGFNCHAGHYFCYIKASNGLWYQMNDSIVSTSDIRSVLSQQAYVLFYIRSHDVKNGGELTHPTHSPGQSSPRPVISQRVVTNKQ
notes: USP42, human, catalytic domain, residues 70-446; also called recombinant USP42; source: E. coli Rosetta2(DE3)pLacI, purified (HisTrap, 3C cleavage, reverse Ni-NTA, cation exchange)
B2: USP36^81–424 (catalytic domain, shorter construct) (enzyme, human, UniProt Q9P275 81-424, looked up)
chain: ARRQGSEHTYESCGDGVPAPQKVLFPTERLSLRWERVFRVGAGLHNLGNTCFLNATIQCLTYTPPLANYLLSKEHARSCHQGSFCMLCVMQNHIVQAFANSGNAIKPVSFIRDLKKIARHFRFGNQEDAHEFLRYTIDAMQKACLNGCAKLDRQTQATTLVHQIFGGYLRSRVKCSVCKSVSDTYDPYLDVALEIRQAANIVRALELFVKADVLSGENAYMCAKCKKKVPASKRFTIHRTSNVLTLSLKRFANFSGGKITKDVGYPEFLNIRPYMSQNNGDPVMYGLYAVLVHSGYSCHAGHYYCYVKASNGQWYQMNDSLVHSSNVKVVLNQQAYVLFYLRIP
notes: USP36, human, catalytic domain, residues 81-424; also called shorter USP36^81–424 construct; source: E. coli Rosetta2(DE3)pLacI, purified (HisTrap, 3C cleavage, cation exchange)
B3: USP36^81–461 (catalytic domain, longer construct) (enzyme, human, UniProt Q9P275 81-461, looked up)
chain: ARRQGSEHTYESCGDGVPAPQKVLFPTERLSLRWERVFRVGAGLHNLGNTCFLNATIQCLTYTPPLANYLLSKEHARSCHQGSFCMLCVMQNHIVQAFANSGNAIKPVSFIRDLKKIARHFRFGNQEDAHEFLRYTIDAMQKACLNGCAKLDRQTQATTLVHQIFGGYLRSRVKCSVCKSVSDTYDPYLDVALEIRQAANIVRALELFVKADVLSGENAYMCAKCKKKVPASKRFTIHRTSNVLTLSLKRFANFSGGKITKDVGYPEFLNIRPYMSQNNGDPVMYGLYAVLVHSGYSCHAGHYYCYVKASNGQWYQMNDSLVHSSNVKVVLNQQAYVLFYLRIPGSKKSPEGLISRTGSSSLPGRPSVIPDHSKKNIGNGI
notes: also called recombinant USP36; source: E. coli Rosetta2(DE3)pLacI, purified (HisTrap, 3C cleavage, cation exchange)
B4: USP2^258–605 (catalytic domain) (enzyme, human, UniProt O75604 258-605, looked up)
chain: MNSKSAQGLAGLRNLGNTCFMNSILQCLSNTRELRDYCLQRLYMRDLHHGSNAHTALVEEFAKLIQTIWTSSPNDVVSPSEFKTQIQRYAPRFVGYNQQDAQEFLRFLLDGLHNEVNRVTLRPKSNPENLDHLPDDEKGRQMWRKYLEREDSRIGDLFVGQLKSSLTCTDCGYCSTVFDPFWDLSLPIAKRGYPEVTLMDCMRLFTKEDVLDGDEKPTCCRCRGRKRCIKKFSIQRFPKILVLHLKRFSESRIRTSKLTTFVNFPLRDLDLREFASENTNHAVYNLYAVSNHSGTTMGGHYTAYCRSPGTGEWHTFNDSSVTPMSSSQVRTSDAYLLFYELASPPSRM
notes: USP2, human, catalytic domain, residues 258-605; also called recombinant USP2; source: E. coli Rosetta2(DE3)pLacI, purified (HisTrap, 3C cleavage, SEC)
B5: USP16^191–823 (catalytic domain) (enzyme, human, UniProt Q9Y5T5 191-823, looked up)
chain: CQITVKGLSNLGNTCFFNAVMQNLSQTPVLRELLKEVKMSGTIVKIEPPDLALTEPLEINLEPPGPLTLAMSQFLNEMQETKKGVVTPKELFSQVCKKAVRFKGYQQQDSQELLRYLLDGMRAEEHQRVSKGILKAFGNSTEKLDEELKNKVKDYEKKKSMPSFVDRIFGGELTSMIMCDQCRTVSLVHESFLDLSLPVLDDQSGKKSVNDKNLKKTVEDEDQDSEEEKDNDSYIKERSDIPSGTSKHLQKKAKKQAKKQAKNQRRQQKIQGKVLHLNDICTIDHPEDSEYEAEMSLQGEVNIKSNHISQEGVMHKEYCVNQKDLNGQAKMIESVTDNQKSTEEVDMKNINMDNDLEVLTSSPTRNLNGAYLTEGSNGEVDISNGFKNLNLNAALHPDEINIEILNDSHTPGTKVYEVVNEDPETAFCTLANREVFNTDECSIQHCLYQFTRNEKLRDANKLLCEVCTRRQCNGPKANIKGERKHVYTNAKKQMLISLAPPVLTLHLKRFQQAGFNLRKVNKHIKFPEILDLAPFCTLKCKNVAEENTRVLYSLYGVVEHSGTMRSGHYTAYAKARTANSHLSNLVLHGDIPQDFEMESKGQWFHISDTHVQAVPTTKVLNSQAYLLFYERIL
notes: USP16, human, catalytic domain, residues 191-823; also called recombinant USP16; source: E. coli Rosetta2(DE3)pLacI, purified (HisTrap, 3C cleavage, reverse Ni-NTA, anion exchange, SEC)

Key:
Settings in all cases: both partners purified
[1] = biological target: T1, ubiquitin-PA (untagged, wild type) (human, UniProt P0CG47 1-75, C-terminal propargylamine (PA) warhead); experiment: activity-based probe labelling (covalent conjugate), SDS-PAGE; purified protease 2.5 µM and probe 10 µM, 1 h at 37 °C; 20 mM Tris pH 8.0, 300 mM NaCl, 2 mM DTT, 5% glycerol; SDS-PAGE and Coomassie staining
T1 construct: ubiquitin, human, residues 1-75 of the 76-residue ubiquitin; also called Ub-PA; wild-type ubiquitin-PA

[2] = biological target: T2, Fubi-PA (untagged, wild type) (human, UniProt P62861 1-73, C-terminal propargylamine (PA) warhead); experiment: intact protein LC-MS; covalent USP36~probe complexes analysed by intact protein mass spectrometry
T2 construct: Fubi, human, residues 1-73 of the 74-residue Fubi; also called wild-type Fubi-PA; Fubi-based probe
T2 sequence (P62861 1-73): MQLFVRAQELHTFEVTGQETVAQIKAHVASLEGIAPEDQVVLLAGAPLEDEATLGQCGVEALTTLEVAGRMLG

[3] = biological target: T1, ubiquitin-PA (untagged, wild type); experiment: as above

Binder	binding result [1]	stoichiometry N [2]	stoichiometry N [3]
B1	binds		
B2	binds		
B3		1	1
B4	binds		
B5	binds		
